No end group written: not given here.
What was measured:
[1] = target: T1, Hu/NoV/GII.4/RockvilleD1/2012/U.S. VLP (human norovirus GII.4); experiment: VLP ELISA
T1 construct: mature; baculovirus VLP; VP2 may be present

[2] = target: T2, Hu/NoV/GII.3/CHDC4031/1988/U.S. VLP (human norovirus GII.3); experiment: VLP ELISA
T2 construct: mature; baculovirus VLP; VP2 may be present

[3] = target: T3, Hu/NoV/GII.1/Hawaii/1971/U.S. VLP (human norovirus GII.1); experiment: VLP ELISA
T3 construct: mature; baculovirus VLP; VP2 may be present

[4] = target: T4, Hu/NoV/GII.4/MD145-12/1997/U.S. VLP (human norovirus GII.4); experiment: VLP ELISA
T4 construct: mature; baculovirus VLP; VP2 may be present

[5] = target: T5, Hu/NoV/GII.4/CHDC4871/1977/U.S. VLP (human norovirus GII.4); experiment: VLP ELISA
T5 construct: mature; baculovirus VLP; VP2 may be present

[6] = target: T6, Hu/NoV/GII.2/Henryton/1971/U.S. VLP (human norovirus GII.2); experiment: VLP ELISA
T6 construct: mature; baculovirus VLP; VP2 may be present

[7] = target: T7, Hu/NoV/GII.4/HS-191/2001/U.S. VLP (human norovirus GII.4); experiment: VLP ELISA
T7 construct: mature; baculovirus VLP; VP2 may be present

[8] = target: T8, Hu/GII.6/Bethesda/2012/U.S. VLP (human norovirus GII.6); experiment: VLP ELISA
T8 construct: mature; baculovirus VLP; VP2 may be present

[9] = target: T9, Hu/NoV/GII.14/M7/1999/U.S. VLP (human norovirus GII.14); experiment: VLP ELISA
T9 construct: mature; baculovirus VLP; VP2 may be present

[10] = target: T10, Hu/NoV/GII.7/DC119/U.S. VLP (human norovirus GII.7); experiment: VLP ELISA
T10 construct: mature; baculovirus VLP; VP2 may be present

[11] = target: T11, Hu/NoV/Snow Mountain/GII.2/U.S. VLP (human norovirus GII.2); experiment: VLP ELISA
T11 construct: mature; baculovirus VLP; VP2 may be present

[12] = target: T12, Hu/NoV/GII.4/MD2004/2004/U.S. VLP (human norovirus GII.4); experiment: VLP ELISA
T12 construct: mature; baculovirus VLP; VP2 may be present; also called MD2004 VLP

[13] = target: T13, Toronto VP1 peptide 507-523 (NoV Toronto strain, also: biotinylated (position not given here)); experiment: ELISA on biotinylated peptide
T13 construct: 17-mer of the P domain peptide library
T13 peptide: TVPPNGYFRFESWVNPF
Method: (§1) For this assay, a peptidic library of 67 peptides corresponding to the P domain of the VP1 amino acid sequence from NoV Toronto strain was synthetized. The peptides were 17 amino acids long, with 5 amino acids overlapping with the previous and the next peptide of the sequence. Neutravidin coated plates (PIERCE®) were used for this assay. The plates were coated with each biotinylated peptide in duplicates (2 μl of peptide/100 μl of PBS 0.1% BSA per well) overnight at 4° C. Then, after washing the plates, 100 ng/well of 7.5 VHH were added and the plates were incubated for 2 hours at room temperature. The plates were washed and incubated with rabbit anti-VHH serum (1/8,000) and HRP-conjugated goat anti-rabbit immunoglobulin G (1:2,000) (KPL). The signal was developed with ABTS/H₂O₂.

[14] = target: T14, Toronto VP1 peptide 517-533 (NoV Toronto strain, also: biotinylated (position not given here)); experiment: ELISA on biotinylated peptide
T14 construct: 17-mer of the P domain peptide library
T14 peptide: ESWVNPFYTLAPMGTGN
Method: as §1

[15] = target: T15, Toronto VP1 peptide 512-528 (NoV Toronto strain, also: biotinylated (position not given here)); experiment: ELISA on biotinylated peptide
T15 construct: 17-mer of the P domain peptide library, captured on neutravidin plates
T15 peptide: GYFRFESWVNPFYTLAP
Method: as §1

[16] = target: T16, Toronto VP1 peptide 522-538 (NoV Toronto strain, also: biotinylated (position not given here)); experiment: ELISA on biotinylated peptide
T16 construct: 17-mer of the P domain peptide library
T16 peptide: PFYTLAPMGTGNGRRRI
Method: as §1

[17] = target: T4, Hu/NoV/GII.4/MD145-12/1997/U.S. VLP; experiment: cell-based or functional assay

B1: VHH 7.5 (VHH)
VHH: QVKLQESGGGLVQAGESLRLSCAASGSNFSINGVGWYRQAPGKQRELVAGITNGGYTSYADSVKGRFTISTDNAKNTVYLQMNSLRPEDTAVYYCNANFQIHRSGADYVRNYWGQGTQVTVSA
notes: llama VHH, MD2004 library; pHEN6, C-terminal His6 tag; also called clone 7.5
In the case of B1, the “minimum concentration of VHH able to recognize 100 ng of VLP” value (shortened to “minimum concentration of VHH able”) [1] is reported as 0.5 ng/well, the “minimum concentration of VHH able” value [2] is reported as 1 ng/well and the “minimum concentration of VHH able” value [3] is reported as 1 ng/well. For the same binder, the “minimum concentration of VHH able” value [4] was 0.5 ng/well, the “minimum concentration of VHH able” value [5] was 2 ng/well and the “minimum concentration of VHH able” value [6] was 1 ng/well. The “minimum concentration of VHH able” value [7] was 2 ng/well, the “minimum concentration of VHH able” value [8] was 1 ng/well and the “minimum concentration of VHH able” value [9] was 1 ng/well. The “minimum concentration of VHH able” value [10] was 1 ng/well, the “minimum concentration of VHH able” value [11] was 2 ng/well and the “minimum concentration of VHH able” value [12] was 0.5 ng/well. B1: no binding (tested: 100 ng/well) [13]; binds [14]; binds [15]. The binding result [16] was “no binding (tested: 100 ng/well)” and the “HAI titer, B Rh+ RBC” value [17] was 0.78 µg/mL.

Source: patent publication US20200283507A1 (US Dept. of Health and Human Services, published 2020)
